Measured values as given in PMC10149743, “Structural studies of the nucleus-like assembly of jumbo bacteriophage 201φ2-1” (Frontiers in Microbiology, 2023).

Columns and labels:
[1] = target: the molecule itself; assay: SEC; truncation mutants of gp105, purified as the wild type, Superose 6 Increase 10/300 GL in buffer B (20 mM HEPES pH 7.5, 150 mM NaCl); self-association
[2] = target: the molecule itself; assay: cryo-EM structure; cube-like particles from the 11.4 ml SEC peak; reconstruction with O symmetry (4.76 Å) and without symmetry (6.41 Å)

Row | Protein | binding result [1] | stoichiometry N [2]
1 | gp105Δ(loop 279–285) (natural protein, Pseudomonas phage 201phi2-1, UniProt B3FIW8 1-631, looked up, gp105 of Pseudomonas phage 201phi2-1, GenBank ABY62937, loop residues 279-285 deleted; source: E. coli BL21 (DE3) pLysS, purified using the same method as for the wild type gp105) MIRDTATNTTQTQAAPQQAPAQQFTQAPQEKPMQSTQSQPTPSYAGTGGINSQFTRSGNVQGGDARASEALTVFTRLKEQAVAQQDLADDFSILRFDRDQHQVGWSSLVIAKQISLNGQPVIAVRPLILPNNSIELPKRKTNIVNGMQTDVIESDIDVGTVFSAQYFNRLSTYVQNTLGKPGAKVVLAGPFPIPADLVLKDSELQLRNLLIKSVNACDDILALHSGERPFTIAGLKGQQGETLAAKVDIRTQPLHDTVGNPIRADIVVTTQRVRRNGQTDVKLNQVAMFTNLERTPQAQAQTLFPNQQQVATPAPWVASVVITDVRNADGIQANTPEMYWFALSNAFRSTHGHAWARPFLPMTGVAKDMKDIGALGWMSALRNRIDTKAANFDDAQFGQLMLSQVQPNPVFQIDLNRMGETAQMDSLQLDAAGGPNAQKAAATIIRQINNLGGGGFERFFDHTTQPILERTGQVIDLGNWFDGDEKRDRRDLDNLAALNAAEGNENEFWGFYGAQLNPNLHPDLRNRQSRNYDRQYLGSTVTYTGKAERCTYNAKFIEALDRYLAEAGLQITMDNTSVLNSGQRFMGNSVIGNNMVSGQAQVHSAYAGTQGFNTQYQTGPSSFY | binds | –
2 | gp105Δ(NTS 1–17) (domain or fragment, Pseudomonas phage 201phi2-1, UniProt B3FIW8 18-631, looked up, gp105 of Pseudomonas phage 201phi2-1, GenBank ABY62937, residues 1-17 removed; Truncation made by PCR and In-Fusion cloning into pET28a; source: E. coli BL21 (DE3) pLysS, purified using the same method as for the wild type gp105) QAPAQQFTQAPQEKPMQSTQSQPTPSYAGTGGINSQFTRSGNVQGGDARASEALTVFTRLKEQAVAQQDLADDFSILRFDRDQHQVGWSSLVIAKQISLNGQPVIAVRPLILPNNSIELPKRKTNIVNGMQTDVIESDIDVGTVFSAQYFNRLSTYVQNTLGKPGAKVVLAGPFPIPADLVLKDSELQLRNLLIKSVNACDDILALHSGERPFTIAGLKGQQGETLAAKVDIRTQPLHDTVGNPIRADIVVTTQRVRRNGQQENEFYETDVKLNQVAMFTNLERTPQAQAQTLFPNQQQVATPAPWVASVVITDVRNADGIQANTPEMYWFALSNAFRSTHGHAWARPFLPMTGVAKDMKDIGALGWMSALRNRIDTKAANFDDAQFGQLMLSQVQPNPVFQIDLNRMGETAQMDSLQLDAAGGPNAQKAAATIIRQINNLGGGGFERFFDHTTQPILERTGQVIDLGNWFDGDEKRDRRDLDNLAALNAAEGNENEFWGFYGAQLNPNLHPDLRNRQSRNYDRQYLGSTVTYTGKAERCTYNAKFIEALDRYLAEAGLQITMDNTSVLNSGQRFMGNSVIGNNMVSGQAQVHSAYAGTQGFNTQYQTGPSSFY | binds | –
3 | nucleus-like shell protein gp105 of bacteriophage 201φ2-1, wild type, C-terminal His6 (natural protein, Pseudomonas phage 201phi2-1, UniProt B3FIW8 1-631, looked up, gp105 (nucleus-like shell protein, chimallin) of Pseudomonas phage 201phi2-1, GenBank ABY62937; 631 amino acids; synthesised codon-optimised gene in pET28a; residues 1-48 and 583-631 are named as present but not built in the model; Occurs as monomer, 24-mer cube-like particle and large sheet-like assemblies; also called NLSP; source: E. coli BL21 (DE3) pLysS, purified (cobalt resin, Superose 6 …)) MIRDTATNTTQTQAAPQQAPAQQFTQAPQEKPMQSTQSQPTPSYAGTGGINSQFTRSGNVQGGDARASEALTVFTRLKEQAVAQQDLADDFSILRFDRDQHQVGWSSLVIAKQISLNGQPVIAVRPLILPNNSIELPKRKTNIVNGMQTDVIESDIDVGTVFSAQYFNRLSTYVQNTLGKPGAKVVLAGPFPIPADLVLKDSELQLRNLLIKSVNACDDILALHSGERPFTIAGLKGQQGETLAAKVDIRTQPLHDTVGNPIRADIVVTTQRVRRNGQQENEFYETDVKLNQVAMFTNLERTPQAQAQTLFPNQQQVATPAPWVASVVITDVRNADGIQANTPEMYWFALSNAFRSTHGHAWARPFLPMTGVAKDMKDIGALGWMSALRNRIDTKAANFDDAQFGQLMLSQVQPNPVFQIDLNRMGETAQMDSLQLDAAGGPNAQKAAATIIRQINNLGGGGFERFFDHTTQPILERTGQVIDLGNWFDGDEKRDRRDLDNLAALNAAEGNENEFWGFYGAQLNPNLHPDLRNRQSRNYDRQYLGSTVTYTGKAERCTYNAKFIEALDRYLAEAGLQITMDNTSVLNSGQRFMGNSVIGNNMVSGQAQVHSAYAGTQGFNTQYQTGPSSFY | – | 24
4 | gp105Δ(NTS 1–17, CTS 609–631) (domain or fragment, Pseudomonas phage 201phi2-1, UniProt B3FIW8 18-608, looked up, gp105 of Pseudomonas phage 201phi2-1, GenBank ABY62937, residues 1-17 and 609-631 removed; Truncation made by PCR and In-Fusion cloning into pET28a; source: E. coli BL21 (DE3) pLysS, purified using the same method as for the wild type gp105) QAPAQQFTQAPQEKPMQSTQSQPTPSYAGTGGINSQFTRSGNVQGGDARASEALTVFTRLKEQAVAQQDLADDFSILRFDRDQHQVGWSSLVIAKQISLNGQPVIAVRPLILPNNSIELPKRKTNIVNGMQTDVIESDIDVGTVFSAQYFNRLSTYVQNTLGKPGAKVVLAGPFPIPADLVLKDSELQLRNLLIKSVNACDDILALHSGERPFTIAGLKGQQGETLAAKVDIRTQPLHDTVGNPIRADIVVTTQRVRRNGQQENEFYETDVKLNQVAMFTNLERTPQAQAQTLFPNQQQVATPAPWVASVVITDVRNADGIQANTPEMYWFALSNAFRSTHGHAWARPFLPMTGVAKDMKDIGALGWMSALRNRIDTKAANFDDAQFGQLMLSQVQPNPVFQIDLNRMGETAQMDSLQLDAAGGPNAQKAAATIIRQINNLGGGGFERFFDHTTQPILERTGQVIDLGNWFDGDEKRDRRDLDNLAALNAAEGNENEFWGFYGAQLNPNLHPDLRNRQSRNYDRQYLGSTVTYTGKAERCTYNAKFIEALDRYLAEAGLQITMDNTSVLNSGQRFMGNSVIGNNMVSGQAQ | binds | –
5 | gp105Δ(NTS 1–60) (domain or fragment, Pseudomonas phage 201phi2-1, UniProt B3FIW8 61-631, looked up, gp105 of Pseudomonas phage 201phi2-1, GenBank ABY62937, residues 1-60 removed; Truncation made by PCR and In-Fusion cloning into pET28a; source: E. coli BL21 (DE3) pLysS, purified using the same method as for the wild type gp105) QGGDARASEALTVFTRLKEQAVAQQDLADDFSILRFDRDQHQVGWSSLVIAKQISLNGQPVIAVRPLILPNNSIELPKRKTNIVNGMQTDVIESDIDVGTVFSAQYFNRLSTYVQNTLGKPGAKVVLAGPFPIPADLVLKDSELQLRNLLIKSVNACDDILALHSGERPFTIAGLKGQQGETLAAKVDIRTQPLHDTVGNPIRADIVVTTQRVRRNGQQENEFYETDVKLNQVAMFTNLERTPQAQAQTLFPNQQQVATPAPWVASVVITDVRNADGIQANTPEMYWFALSNAFRSTHGHAWARPFLPMTGVAKDMKDIGALGWMSALRNRIDTKAANFDDAQFGQLMLSQVQPNPVFQIDLNRMGETAQMDSLQLDAAGGPNAQKAAATIIRQINNLGGGGFERFFDHTTQPILERTGQVIDLGNWFDGDEKRDRRDLDNLAALNAAEGNENEFWGFYGAQLNPNLHPDLRNRQSRNYDRQYLGSTVTYTGKAERCTYNAKFIEALDRYLAEAGLQITMDNTSVLNSGQRFMGNSVIGNNMVSGQAQVHSAYAGTQGFNTQYQTGPSSFY | binds | –
